US20130266574A1 (Regeneron, published 2013)

Columns and labels:
[1] = target: T1, amino acid residues 26-148 of human ANGPTL4 fused in-line to mouse IgG2a (hANGPTL4-mFc) (human); test: cell-based or functional assay
T1 chain: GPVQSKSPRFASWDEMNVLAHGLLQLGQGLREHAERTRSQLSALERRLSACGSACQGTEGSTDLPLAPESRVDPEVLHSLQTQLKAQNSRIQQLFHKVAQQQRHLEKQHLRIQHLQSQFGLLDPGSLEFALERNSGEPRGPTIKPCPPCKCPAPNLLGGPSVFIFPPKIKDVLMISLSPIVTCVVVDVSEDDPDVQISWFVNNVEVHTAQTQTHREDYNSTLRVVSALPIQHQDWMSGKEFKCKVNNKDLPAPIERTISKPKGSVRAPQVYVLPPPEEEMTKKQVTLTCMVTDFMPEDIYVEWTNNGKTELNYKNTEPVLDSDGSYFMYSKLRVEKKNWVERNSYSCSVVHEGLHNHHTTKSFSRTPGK

[2] = target: T2, full-length hANGPTL4 (amino acid residues 26-406 of SEQ ID NO:476) with a C-terminal hexa-histidine tag (human, UniProt Q9BY76 26-406); test: cell-based or functional assay
T2 sequence: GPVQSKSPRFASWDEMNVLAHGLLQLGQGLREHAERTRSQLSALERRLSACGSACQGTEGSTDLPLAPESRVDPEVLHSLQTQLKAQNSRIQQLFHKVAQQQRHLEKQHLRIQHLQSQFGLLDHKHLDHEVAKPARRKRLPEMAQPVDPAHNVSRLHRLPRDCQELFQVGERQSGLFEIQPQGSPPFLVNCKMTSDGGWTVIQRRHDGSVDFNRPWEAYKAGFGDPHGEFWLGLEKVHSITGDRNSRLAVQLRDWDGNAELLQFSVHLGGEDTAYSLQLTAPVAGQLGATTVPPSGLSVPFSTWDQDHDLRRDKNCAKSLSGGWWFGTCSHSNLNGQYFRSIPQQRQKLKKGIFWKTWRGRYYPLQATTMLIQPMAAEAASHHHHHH

[3] = target: T1, amino acid residues 26-148 of human …; test: cell-based or functional assay
[4] = target: T2, full-length hANGPTL4 (amino acid …); test: cell-based or functional assay; remark: listed apart in the source
[5] = target: T1, amino acid residues 26-148 of human …; test: cell-based or functional assay
[6] = target: T2, full-length hANGPTL4 (amino acid …); test: cell-based or functional assay; remark: listed apart in the source
[7] = target: T3, cynomolgus monkey ANGPTL4 N-terminal region (amino acid residues 26-148) with an N-terminal hexa-histidine tag (cynomolgus monkey, UniProt Q9BY76 26-148 (human entry)); test: cell-based or functional assay
T3 chain: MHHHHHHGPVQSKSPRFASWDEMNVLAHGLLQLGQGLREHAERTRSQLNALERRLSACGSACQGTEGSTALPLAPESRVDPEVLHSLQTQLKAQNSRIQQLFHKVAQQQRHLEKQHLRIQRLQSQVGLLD

[8] = target: T1, amino acid residues 26-148 of human …; test: cell-based or functional assay
[9] = target: T2, full-length hANGPTL4 (amino acid …); test: cell-based or functional assay; remark: listed apart in the source
[10] = target: T1, amino acid residues 26-148 of human …; test: SPR (Biacore), 25° C., pH 7.2, antigen captured by anti-mFc
Experimental: (§1) Kinetic analysis was performed to measure kₐ and kd, and KD values and half-life of antigen/antibody complex dissociation were calculated. The results are shown in Table 4 (H1H268P) and Table 5 (H1H284P).

[11] = target: T1, amino acid residues 26-148 of human …; test: SPR (Biacore), 25° C., pH 5.75, antigen captured by anti-mFc
Experimental: as §1

[12] = target: T4, cynomolgus monkey ANGPTL4 N-terminal region (amino acid residues 1-130 of SEQ ID NO:490) with a C-terminal … (cynomolgus monkey (Macaca fascicularis), UniProt Q9BY76 26-130 (human entry)); test: SPR (Biacore), 25° C., pH 7.2, antigen amino-coupled 1,028 RU
T4 construct: also called MfANGPTL4(1-130)-His
T4 chain: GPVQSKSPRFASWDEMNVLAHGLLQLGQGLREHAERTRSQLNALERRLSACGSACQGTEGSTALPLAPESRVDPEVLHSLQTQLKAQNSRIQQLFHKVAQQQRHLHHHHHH
Experimental: as §1

[13] = target: T4, cynomolgus monkey ANGPTL4 N-terminal …; test: SPR (Biacore), 25° C., pH 5.75, antigen amino-coupled 1,028 RU
Experimental: as §1

[14] = target: T4, cynomolgus monkey ANGPTL4 N-terminal …; test: SPR (Biacore), 25° C., pH 5.75, antigen amino-coupled 1,028 RU; Full mAb, not Fab; pH 5.75
Experimental: as §1

Row | Binder | IC50, antibody concentration required for 50% maximum inhibition of 2 nM hANGPTL4-mFc (LPL lipase test) [1] | IC50, antibody concentration required for 50% maximum inhibition of 10 nM hANGPTL4-His (LPL lipase test) [2] | % Inhibition of hANGPTL4 Activity (LPL lipase test), hANGPTL4-mFc (2 nM) [3] | % Inhibition of hANGPTL4 Activity (LPL lipase test), hANGPTL4-His (10 nM) [4] | IC50 (nM) in the LPL bioassay, constant ANGPTL4 2 nM [5] | IC50 (nM) in the LPL bioassay, constant ANGPTL4 10 nM [6] | IC50 (nM) in the LPL bioassay, constant ANGPTL4 10 nM [7] | IC50 (nM) in the LPL inhibition assay, constant ANGPTL4 2 nM [8] | IC50 (nM) in the LPL inhibition assay, constant ANGPTL4 10 nM [9] | Kd [10] | koff [10] | kon [10] | t1/2 [10] | Kd [11] | koff [11] | kon [11] | t1/2 [11] | Kd [12] | koff [12] | kon [12] | further results
1 | H1H268P (antibody, V domains shown, also called entire H1H268 mAb; Full mAb) VH: QVQLQESGAGLLKPSETLSLTCTVYGGSFSIHHWTWIRHPPGKGLEWIGEINHRGSTNYNPSLKSRVTISIDTSKNQFSLKLSAVTAADTAVYYCARGLRFLDWLSSYFDYWGQGTLVTVSS VL: DIQMTQSPSSLSASVGDRVTITCRASQGISDYLAWYQQKPGKVPNLLIYAASALQSGVPSRFSGSGSGTDFTLTISSLQPEDVATYYCQNYNTAPLTFGGGTKVEIK | 1.2 nM | 0.2 nM | 76% | 80% | 0.47 nM | 0.46 nM | 0.42 nM | 0.67 nM | 0.2 nM | 0.629 nM | 9.59e-05 s⁻¹ | 153000 M⁻¹ s⁻¹ | 2 h | 0.22 nM | 0.000138 s⁻¹ | 628000 M⁻¹ s⁻¹ | 1.4 h | 0.122 nM | 4.76e-05 s⁻¹ | 392000 M⁻¹ s⁻¹ | t1/2 [12]: 4.05 h; t1/2 [13]: 2.33 h; Kd [14]: 0.0772 nM; koff [14]: 8.24e-05 s⁻¹; kon [14]: 1.07e+06 M⁻¹ s⁻¹
2 | H1H284P (antibody, V domains shown, also called entire H1H284 mAb; Full mAb) VH: QVQLVESGGGVVQPGRSLRLSCAASGFTFSSYGMHWVRQAPGKGLEWMAVISFDGGNKNNADSVKGRFTISRDNSKNTLYLQMNSLRAEDTAVYYCAKEGDRSGHPYFYYYGLDVWGQGTTVTVS VL: DIQLTQSPSFLSASVGDRVTITCWASQGISSYLAWYQQKPGKAPKLLIYAASTLQSGVPSRFSGSGSETEFTLTISSLQPEDFATYYCQQLHSYPLTFGGGTKVEIK | 0.8 nM | 0.5 nM | 82% | 90% | 0.51 nM | 0.31 nM | 0.42 nM | 0.33 nM | 0.42 nM | 0.196 nM | 5.36e-05 s⁻¹ | 274000 M⁻¹ s⁻¹ | 3.6 h | 0.0819 nM | 8.91e-05 s⁻¹ | 1.09e+06 M⁻¹ s⁻¹ | 2.17 h | 0.125 nM | 5.83e-05 s⁻¹ | 467000 M⁻¹ s⁻¹ | t1/2 [12]: 3.3 h; koff [13]: 8.42e-05 s⁻¹; kon [13]: 1.55e+06 M⁻¹ s⁻¹; t1/2 [13]: 2.28 h; Kd [14]: 0.0543 nM
